Test results from US20230250154A1.

Molecular target: Protease Mixtures
Assay: cell-based or functional assay

Protease Inhibition (% of WT); Protease Mixtures, IGD Substrate: 210 % of WT
B1: Variant A2M, bait region SEQ ID NO 138, P01023 24-1474 (protein)
chain: SVSGKPQYMVLVPSLLHTETTEKGCVLLSYLNETVTVSASLESVRGNRSLFTDLEAENDVLHCVAFAVPKSSSNEEVMFLTVQVKGPTQEFKKRTTVMVKNEDSLVFVQTDKSIYKPGQTVKFRVVSMDENFHPLNELIPLVYIQDPKGNRIAQWQSFQLEGGLKQFSFPLSSEPFQGSYKVVVQKKSGGRTEHPFTVEEFVLPKFEVQVTVPKIITILEEEMNVSVCGLYTYGKPVPGHVTVSICRKYSDASDCHGEDSQAFCEKFSGQLNSHGCFYQQVKTKVFQLKRKEYEMKLHTEAQIQEEGTVVELTGRQSSEITRTITKLSFVKVDSHFRQGIPFFGQVRLVDGKGVPIPNKVIFIRGNEANYYSNATTDEHGLVQFSINTTNVMGTSLTVRVNYKDRSPCYGYQWVSEEHEEAHHTAYLVFSPSKSFVHLEPMSHELPCGHTQTVQAHYILNGGTLLGLKKLSFYYLIMAKGGIVRTGTHGLLVKQEDMKGHFSISIPVKSDIAPVARLLIYAVLPTGDVIGDSAKYDVENCLANKVDLSFSPSQSLPASHAHLRVTAAPQSVCALRAVDQSVLLMKPDAELSASSVYNLLPEKDLTGFPGPLNDQDDEDCINRHNVYINGITYTPVSSTNEKDMYSFLEDMGLKAFTNSKIRKPKMCPQLEQYEMHGPSEDLVVQIEGEGEGEGIPENFFGVKEEEGLGSVEEPHTKLRKYFPETWIWDLVVVNSAGVAEVGVTVPDTITEWKAGAFCLSEDAGLGISSTASLRAFQPFFVELTMPYSVIRGEAFTLKATVLNYLPKCIRVSVQLEASPAFLAVPVEKEQAPHCICANGRQTVSWAVTPKSLGNVNFTVSAEALESQELCGTEVPSVPEHGRKDTVIKPLLVEPEGLEKETTFNSLLCPSGGEVSEELSLKLPPNVVEESARASVSVLGDILGSAMQNTQNLLQMPYGCGEQNMVLFAPNIYVLDYLNETQQLTPEIKSKAIGYLNTGYQRQLNYKHYDGSYSTFGERYGRNQGNTWLTAFVLKTFAQARAYIFIDEAHITQALIWLSQRQKDNGCFRSSGSLLNNAIKGGVEDEVTLSAYITIALLEIPLTVTHPVVRNALFCLESAWKTAQEGDHGSHVYTKALLAYAFALAGNQDKRKEVLKSLNEEAVKKDNSVHWERPQKPKAPVGHFYEPQAPSAEVEMTSYVLLAYLTAQPAPTSEDLTSATNIVKWITKQQNAQGGFSSTQDTVVALHALSKYGAATFTRTGKAAQVTIQSSGTFSSKFQVDNNNRLLLQQVSLPELPGEYSMKVTGEGCVYLQTSLKYNILPEKEEFPFALGVQTLPQTCDEPKAHTSFQISLSVSYTGSRSASNMAIVDVKMVSGFIPLKPTVKMLERSNHVSRTEVSSNHVLIYLDKVSNQTLSLFFTVLQDVPVRDLKPAIVKVYDYYETDEFAIAEYNAPCSKDLGNADYKDDDDKGASHHHHHH
